Experimental findings from US20190338011A1 are described below.

Assay [1] deals with human MIC-A (expressed on P815 mastocytoma cells) (human) (UniProt Q29983). Nature of the assay: cell-based or functional assay.
Assay [2] concerns the target human NKG2D ligand on human tumor cell lines (Jurkat, RPMI8866, K562, Daubi, U937, ECC-1). Briefly: cell-based or functional assay.

UniProt Q29983, sequence (Q29983 24-383): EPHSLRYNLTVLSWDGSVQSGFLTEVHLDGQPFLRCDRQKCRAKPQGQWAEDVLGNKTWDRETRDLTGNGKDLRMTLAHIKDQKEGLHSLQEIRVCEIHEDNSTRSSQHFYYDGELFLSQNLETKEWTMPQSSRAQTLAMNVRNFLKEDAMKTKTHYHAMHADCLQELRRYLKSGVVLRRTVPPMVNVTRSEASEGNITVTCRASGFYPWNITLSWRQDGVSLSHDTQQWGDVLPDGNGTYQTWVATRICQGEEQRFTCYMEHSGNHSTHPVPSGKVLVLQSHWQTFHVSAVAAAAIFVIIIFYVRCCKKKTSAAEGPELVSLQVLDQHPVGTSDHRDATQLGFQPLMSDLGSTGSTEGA

Turning to “human chimeric NKG2D (human CD3ζ attached to the N-terminus of human NKG2D) (receptor)”, in assay [1], the Specific Lysis (%) of P815/MIC-A, Effector:Target Ratio 1 came out at 5.4%; the Specific Lysis (%) of P815/MIC-A, Effector:Target Ratio 5 amounted to 17.3%; the Specific Lysis (%) of P815/MIC-A, Effector:Target Ratio 25 was 35.4%. Besides, in assay [2], the Specific Lysis (%) of K562, Effector:Target Ratio 1, with control antibody was found to be 3.1%; the Specific Lysis (%) of K562, Effector:Target Ratio 5, with control antibody is 17.6%; the Specific Lysis (%) of K562, Effector:Target Ratio 25, with control antibody worked out at 53.8%; the Specific Lysis (%) of RPMI8866, Effector:Target Ratio 1, with control antibody was determined as 9.3%. In assay [2], the Specific Lysis (%) of RPMI8866, Effector:Target Ratio 5, with control antibody is 27.4% and the Specific Lysis (%) of RPMI8866, Effector:Target Ratio 25, with control antibody turned out to be 41.6%.
